Source: the supplement of paper PMC10567573

B1: MNAT1 (parent)
chain: SLREYNDFLEEVEEIVFNLTNNVD

Variants of: B1
Assay: protein stability index of a GFP-peptide fusion (GPS, HEK-293T) (PSI 1-6); higher = more stable
Conditions: c terminus: a fixed tail appended
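Further: lentivirally expressed fusions sorted by FACS into six bins by GFP to DsRed ratio, PSI derived from sequencing read proportions per bin multiplied by bin number.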

Protein stability index of substitutions, site by site:
V12: D 4.97; E 4.49; R 4.19; A 3.22; G 4.16; M 1.74; H 3.48; Y 3.04; I 2.13; C 2.9; W 1.87; L 1.09; P 3.91; T 3.48; F 1.86; Q 4.08; S 4.5; N 4.83; K 4.72
N22: A 2.69
E13: F 2.27; I 2.58; A 1.77; Y 1.63; M 2.94; T 1.58; L 2.5; R 1.87; K 2.69; H 2.15; D 2.87; W 2.52; N 2.37; V 2.87; C 2.34; Q 1.93; P 3.69; G 2.43; S 1.74
L9: S 4.82; K 3.98; P 4.61; V 3.77; Q 4.07; M 2.76; Y 3.59; E 4.32; N 4.6; I 2.26; C 3.36; D 4.5; H 4.22; F 3.05; A 4.09; T 4.07; R 3.83; W 1.79; G 3.98
F17: V 2.82; G 3.4; E 3.34; C 2.88; H 3.15; L 2.19; R 2.2; Q 2.78; T 3.16; Y 1.91; A 2.46; P 4; S 3.11; K 2.38; N 2.16; M 2.57; W 1.95; D 3.2
I15: Q 3.87; E 4.66; W 2.16; Y 3.35; T 3.77; C 3.63; V 3.31; A 3.78; M 2.51; N 4.25; P 4.71; L 1.9; H 3.9; R 3.84; F 2.23; D 4.82; K 4.08; G 4.71; S 3.89
R3: W 1.62; V 1.61; Y 1.86
E11: P 3.1; T 1.97; R 2.17; S 1.73; Y 2.23; W 2.46; G 2.13; A 1.86; H 2.07; D 2.51; C 2.33; M 1.87; N 1.68; F 1.49; Q 1.72; K 2.07; I 1.89
T20: M 1.86; D 3.91; L 2.75; K 2.41; G 2.31; N 2.56; W 2; V 1.33; I 1.41; C 2.31; H 2.25; S 3.05; P 3.19; E 2.51; R 2.46; Q 2.37; Y 1.5; A 1.07; F 1.5
N21: T 2.42; A 1.42; K 1.45; L 1.81; R 1.95; G 2.58; C 1.48; S 1.68; P 2.19; H 1.76; M 2.48; E 2.51; Y 2.4; Q 3.08; D 3; I 1.73
V16: K 2.84; W 2.83; G 3.86; E 4.36; T 3.21; C 3; P 4.18; L 1.14; R 3.04; D 4.87; M 2.51; Q 3.99; I 2.46; H 3.86; Y 2.63; S 4.58; F 1.75; N 4.53; A 3.36
E14: Y 2.6; M 2.22; D 2.88; C 2.24; F 2.82; K 1.87; S 2.26; V 1.61; H 2.19; A 1.82; L 2.12; R 2.15; P 3.38; Q 2.46; G 2.34; W 1.75; N 2.11; T 1.87
E10: K 1.91; A 1.58; I 1.3; C 2.74; W 1.95; V 2.25; Y 2.15; L 1.52; R 1.86; M 1.4; D 1.95; S 2.41; G 2.72; P 3.54; Q 2.62; N 1.55; T 2.01; F 2.97
L19: K 4.26; M 2.89; D 4.43; F 2.24; Y 3.06; C 3.34; G 4.19; N 3.76; W 1.63; V 2.97; Q 4.07; H 4.43; S 4.18; A 3.2; R 3.34; P 4.05; I 1.84; E 4.55; T 3.6
N18: Q 1.73; Y 1.4; T 2.55; E 2.16; M 1.84; A 1.84; C 1.71; R 1.6; H 1.85; W 2.52; S 2.16; D 2.36; K 2.01; P 2.71; F 2.22; G 2.38; V 2.32
F8: G 4.11; H 4.72; D 4.87; C 3.8; W 2.53; A 3.06; L 3.43; T 4.55; E 5.2; M 3.51; N 4.84; R 4.61; K 4.28; S 4.91; I 2.57; Q 4.55; Y 3.6; P 4.78; V 3.63
Y5: E 4.35; R 4.19; L 2.16; I 2.61; M 1.73; S 4.29; G 3.91; N 4.14; D 2.23; P 3.81; Q 4.19; W 2.56; V 2.05; C 3.11; F 1.58; K 4.55; T 4.08; A 3.78; H 3.81
D7: P 3; A 2.43; H 1.31; C 2.27; F 2.32; W 1.96; Q 1.83; N 2.49; L 1.94; T 1.47; M 2.27; K 1.58; S 2.05; R 1.63; G 1.75; V 2.16; Y 1.79; E 1.91
N6: E 1.76; C 1.78; H 1.8; D 2.4; K 3.15; W 2.38; Y 1.87; S 3.31; T 2.27; R 2.23; Q 1.75; G 3.17; I 2.63; F 2.77; V 1.68; A 2.82; M 1.76; P 3.08
E4: Q 2.27; T 1.72; I 1.69; A 1.88; P 2.98; F 2.34; K 2.75; V 2.08; R 1.85; M 2.26; D 2.19; H 2.66; G 2.39; L 2.5; C 1.95; S 2.31; W 1.8; N 2.04; Y 1.39
